Data from patent US20160145657A1, “Methods and Materials for Producing 7-Carbon Chemicals via a C9 Route” (INVISTA North America S.á.r.l., priority 2014, published 2016).
Each block holds one molecule with its values, some of them ahead of it.

Key:
[1] = carboxylate reductase activity, N7-acetyl-7-aminoheptanoate to N7-acetyl-7-aminoheptanal, NADPH consumption at 340 nm; type: biochemical; conditions: purified enzyme enhanced by sfp gene product, 2 mM N7-acetyl-7-aminoheptanoate, pH 7.5, room temperature, 20 min; FIG. 10
Description: The activity of each of the N-terminal His-tagged carboxylate reductases of SEQ ID NOs: 3, 5, and 6 (see Examples 2 and 3, and FIG. 6) for converting N7-acetyl-7-aminoheptanoate to N7-acetyl-7-aminoheptanal was assayed in triplicate in a buffer composed of a final concentration of 50 mM HEPES buffer (pH=7.5), 2 mM N7-acetyl-7-aminoheptanoate, 10 mM MgCl2, 1 mM ATP, and 1 mM NADPH. The assays were initiated by adding purified carboxylate reductase and phosphopantetheine transferase or the empty vector control to the assay buffer containing the N7-acetyl-7-aminoheptanoate then incubated at room temperature for 20 min. The consumption of NADPH was monitored by absorbance at 340 nm.

[2] = carboxylate reductase activity, pimelate to pimelate semialdehyde, NADPH consumption at 340 nm; type: biochemical; conditions: purified enzyme enhanced by sfp gene product, 2 mM pimelate, pH 7.5, room temperature, 20 min; FIG. 8
Description: A nucleotide sequence encoding a HIS-tag was added to the nucleic acid sequences from Segniliparus rugosus and Segniliparus rotundus that encode the carboxylate reductases of SEQ ID NOs: 4 (EFV11917.1) and 6 (ADG98140.1), respectively (see FIG. 6), such that N-terminal HIS tagged carboxylate reductases could be produced. Each of the modified genes was cloned into a pET Duet expression vector along with a sfp gene encoding a HIS-tagged phosphopantetheine transferase from Bacillus subtilis, both under the T7 promoter. Each expression vector was transformed into a BL21[DE3] E. coli host and the resulting recombinant E. coli strains were cultivated at 37° C. in a 250 mL shake flask culture containing 50 mL LB media and antibiotic selection pressure, with shaking at 230 rpm. Each culture was induced overnight at 37° C. using an auto-induction media.
The pellet from each induced shake flask culture was harvested via centrifugation. Each pellet was resuspended and lysed via sonication, and the cell debris was separated from the supernatant via centrifugation. […]
Enzyme activity assays (i.e., from pimelate to pimelate semialdehyde) were performed in triplicate in a buffer composed of a final concentration of 50 mM HEPES buffer (pH=7.5), 2 mM pimelate, 10 mM MgCl2, 1 mM ATP and 1 mM NADPH. […] The consumption of NADPH was monitored by absorbance at 340 nm. […]

[3] = ω-transaminase activity, reverse direction (7-aminoheptanoate to pimelate semialdehyde), L-alanine formation by RP-HPLC; type: biochemical; conditions: cell free extract, 10 mM 7-aminoheptanoate, 10 mM pyruvate, pH 7.5, 25° C., 4 h; FIG. 13
Description: (§1) A nucleotide sequence encoding an N-terminal His-tag was added to the nucleic acid sequences from Chromobacterium violaceum, Pseudomonas syringae, Rhodobacter sphaeroides, and Vibrio fluvialis encoding the ω-transaminases of SEQ ID NOs: 7, 9, 10 and 12, respectively (see FIG. 6) such that N-terminal HIS tagged ω-transaminases could be produced. Each of the resulting modified genes was cloned into a pET21a expression vector under control of the T7 promoter and each expression vector was transformed into a BL21[DE3] E. coli host. The resulting recombinant E. coli strains were cultivated at 37° C. in a 250 mL shake flask culture containing 50 mL LB media and antibiotic selection pressure, with shaking at 230 rpm. Each culture was induced overnight at 16° C. using 1 mM IPTG.
(§2) The pellet from each induced shake flask culture was harvested via centrifugation. Each pellet was resuspended and lysed via sonication. The cell debris was separated from the supernatant via centrifugation and the cell free extract was used immediately in enzyme activity assays.
Enzyme activity assays in the reverse direction (i.e., 7-aminoheptanoate to pimelate semialdehyde) were performed in a buffer composed of a final concentration of 50 mM HEPES buffer (pH=7.5), 10 mM 7-aminoheptanoate, 10 mM pyruvate and 100 μM pyridoxyl 5′ phosphate. Each enzyme activity assay reaction was initiated by adding cell free extract of the ω-transaminase gene product or the empty vector control to the assay buffer containing the 7-aminoheptanoate and incubated at 25° C. for 4 h, with shaking at 250 rpm. The formation of L-alanine from pyruvate was quantified via RP-HPLC.

[4] = literature reports; cited from earlier work
[5] = ω-transaminase activity, 7-aminoheptanol to 7-oxoheptanol, L-alanine formation by RP-HPLC; type: biochemical
Description: A nucleotide sequence encoding an N-terminal His-tag was added to the Chromobacterium violaceum, Pseudomonas syringae and Rhodobacter sphaeroides nucleic acids encoding the ω-transaminases of SEQ ID NOs: 7, 9 and 10, respectively (see FIG. 6) such that N-terminal HIS tagged ω-transaminases could be produced. The modified genes were cloned into a pET21a expression vector under the T7 promoter. Each expression vector was transformed into a BL21[DE3] E. coli host. Each resulting recombinant E. coli strain were cultivated at 37° C. in a 250 mL shake flask culture containing 50 mL LB media and antibiotic selection pressure, with shaking at 230 rpm. Each culture was induced overnight at 16° C. using 1 mM IPTG.
as §2
Enzyme activity assays in the reverse direction (i.e., 7-aminoheptanol to 7-oxoheptanol) were performed in a buffer composed of a final concentration of 50 mM HEPES buffer (pH=7.5), 10 mM 7-aminoheptanol, 10 mM pyruvate, and 100 μM pyridoxyl 5′ phosphate. Each enzyme activity assay reaction was initiated by adding cell free extract of the ω-transaminase gene product or the empty vector control to the assay buffer containing the 7-aminoheptanol and then incubated at 25° C. for 4 h, with shaking at 250 rpm. The formation of L-alanine was quantified via RP-HPLC.

[6] = ω-transaminase activity, forward direction (pimelate semialdehyde to 7-aminoheptanoate), pyruvate formation by RP-HPLC; type: biochemical; conditions: conclusion from reverse and forward assays of Example 1
Description: as §1, §2
Enzyme activity in the forward direction (i.e., pimelate semialdehyde to 7-aminoheptanoate) was confirmed for the transaminases of SEQ ID NO 9, SEQ ID NO 10 and SEQ ID NO 12. Enzyme activity assays were performed in a buffer composed of a final concentration of 50 mM HEPES buffer (pH=7.5), 10 mM pimelate semialdehyde, 10 mM L-alanine and 100 μM pyridoxyl 5′ phosphate. Each enzyme activity assay reaction was initiated by adding a cell free extract of the ω-transaminase gene product or the empty vector control to the assay buffer containing the pimelate semialdehyde and incubated at 25° C. for 4 h, with shaking at 250 rpm. The formation of pyruvate was quantified via RP-HPLC.

B1: SEQ ID NO 5: Mycobacterium abscessus subsp. bolletii (Mycobacterium massiliense) carboxylate reductase, Genbank Accession No. EIV11143.1 (protein)
chain: MTNETNPQQEQLSRRIESLRESDPQFRAAQPDPAVAEQVLRPGLHLSEAIAALMTGYAERPALGERARELVIDQDGRTTLRLLPRFDTTTYGELWSRTTSVAAAWHHDATHPVKAGDLVATLGFTSIDYTVLDLAIMILGGVAVPLQTSAPASQWTTILAEAEPNTLAVSIELIGAAMESVRATPSIKQVVVFDYTPEVDDQREAFEAASTQLAGTGIALETLDAVIARGAALPAAPLYAPSAGDDPLALLIYTSGSTGAPKGAMHSENIVRRWWIREDVMAGTENLPMIGLNFMPMSHIMGRGTLTSTLSTGGTGYFAASSDMSTLFEDMELIRPTALALVPRVCDMVFQRFQTEVDRRLASGDTASAEAVAAEVKADIRDNLFGGRVSAVMVGSAPLSEELGEFIESCFELNLTDGYGSTEAGMVFRDGIVQRPPVIDYKLVDVPELGYFSTDKPHPRGELLLKTDGMFLGYYKRPEVTASVFDADGFYMTGDIVAELAHDNIEIIDRRNNVLKLSQGEFVAVATLEAEYANSPVVHQIYVYGSSERSYLLAVVVPTPEAVAAAKGDAAALKTTIADSLQDIAKEIQLQSYEVPRDFIIEPQPFTQGNGLLTGIAKLARPNLKAHYGPRLEQMYAEIAEQQAAELRALHGVDPDKPALETVLKAAQALLGVSSAELAADAHFTDLGGDSLSALSFSDLLRDIFAVEVPVGVIVSAANDLGGVAKFVDEQRHSGGTRPTAETVHGAGHTEIRAADLTLDKFIDEATLHAAPSLPKAAGIPHTVLLTGSNGYLGHYLALEWLERLDKTDGKLIVIVRGKNAEAAYGRLEEAFDTGDTELLAHFRSLADKHLEVLAGDIGDPNLGLDADTWQRLADTVDVIVHPAALVNHVLPYNQLFGPNVVGTAEIIKLAITTKIKPVTYLSTVAVAAYVDPTTFDEESDIRLISAVRPIDDGYANGYGNAKWAGEVLLREAHDLCGLPVAVFRSDMILAHSRYTGQLNVPDQFTRLILSLIATGIAPGSFYQAQTTGERPLAHYDGLPGDFTAEAITTLGTQVPEGSEGFVTYDCVNPHADGISLDNFVDWLIEAGYPIARIDNYTEWFTRFDTAIRGLSEKQKQHSLLPLLHAFEQPSAAENHGVVPAKRFQHAVQAAGIGPVGQDGTTDIPHLSRRLIVKYAKDLEQLGLL
- acceptance of N7-acetyl-7-aminoheptanoate as substrate (NADPH consumption) against the empty vector control [1]: accepted N7-acetyl-7-aminoheptanoate as substrate

- acceptance of pimelate as substrate (NADPH consumption) against the empty vector control [2]: accepted pimelate as substrate
B2: SEQ ID NO: 4: Segniliparus rugosus carboxylate reductase, Genbank Accession No. EFV11917.1 (protein)
chain: MGDGEERAKRFFQRIGELSATDPQFAAAAPDPAVVEAVSDPSLSFTRYLDTLMRGYAERPALAHRVGAGYETISYGELWARVGAIAAAWQADGLAPGDFVATVGFTSPDYVAVDLAAARSGLVSVPLQAGASLAQLVGILEETEPKVLAASASSLEGAVACALAAPSVQRLVVFDLRGPDASESAADERRGALADAEEQLARAGRAVVVETLADLAARGEALPEAPLFEPAEGEDPLALLIYTSGSTGAPKGAMYSQRLVSQLWGRTPVVPGMPNISLHYMPLSHSYGRAVLAGALSAGGTAHFTANSDLSTLFEDIALARPTFLALVPRVCEMLFQESQRGQDVAELRERVLGGRLLVAVCGSAPLSPEMRAFMEEVLGFPLLDGYGSTEALGVMRNGIIQRPPVIDYKLVDVPELGYRTTDKPYPRGELCIRSTSLISGYYKRPEITAEVFDAQGYYKTGDVMAEIAPDHLVYVDRSKNVLKLSQGEFVAVAKLEAAYGTSPYVKQIFVYGNSERSFLLAVVVPNAEVLGARDQEEAKPLIAASLQKIAKEAGLQSYEVPRDFLIETEPFTTQNGLLSEVGKLLRPKLKARYGEALEARYDEIAHGQADELRALRDGAGQRPVVETVVRAAVAISGSEGAEVGPEANFADLGGDSLSALSLANLLHDVFEVEVPVRIIIGPTASLAGIAKHIEAERAGASAPTAASVHGAGATRIRASELTLEKFLPEDLLAAAKGLPAADQVRTVLLTGANGWLGRFLALEQLERLARSGQDGGKLICLVRGKDAAAARRRIEETLGTDPALAARFAELAEGRLEVVPGDVGEPKFGLDDAAWDRLAEEVDVIVHPAALVNHVLPYHQLFGPNVVGTAEIIRLAITAKRKPVTYLSTVAVAAGVEPSSFEEDGDIRAVVPERPLGDGYANGYGNSKWAGEVLLREAHELVGLPVAVFRSDMILAHTRYTGQLNVPDQFTRLVLSLLATGIAPKSFYQQGAAGERQRAHYDGIPVDFTAEAITTLGAEPSWFDGGAGFRSFDVFNPHHDGVGLDEFVDWLIEAGHPISRIDDHKEWFARFETAVRGLPEAQRQHSLLPLLRAYSFPHPPVDGSVYPTGKFQGAVKAAQVGSDHDVPHLGKALIVKYADDLKALGLL

B3: SEQ ID NO 7: Chromobacterium violaceum ω-transaminase, Genbank Accession No. AAQ59697.1 (protein)
chain: MQKQRTTSQWRELDAAHHLHPFTDTASLNQAGARVMTRGEGVYLWDSEGNKIIDGMAGLWCVNVGYGRKDFAEAARRQMEELPFYNTFFKTTHPAVVELSSLLAEVTPAGFDRVFYTNSGSESVDTMIRMVRRYWDVQGKPEKKTLIGRWNGYHGSTIGGASLGGMKYMHEQGDLPIPGMAHIEQPWWYKHGKDMTPDEFGVVAARWLEEKILEIGADKVAAFVGEPIQGAGGVIVPPATYWPEIERICRKYDVLLVADEVICGFGRTGEWFGHQHFGFQPDLFTAAKGLSSGYLPIGAVFVGKRVAEGLIAGGDFNHGFTYSGHPVCAAVAHANVAALRDEGIVQRVKDDIGPYMQKRWRETFSRFEHVDDVRGVGMVQAFTLVKNKAKRELFPDFGEIGTLCRDIFFRNNLIMRACGDHIVSAPPLVMTRAEVDEMLAVAERCLEEFEQTLKARGLA
- acceptance of 7-aminoheptanoate as substrate (conversion of pyruvate to L-alanine) against the empty vector control [3]: accepted 7-aminoheptanote as substrate
- activity with 7-aminoheptanoate / 7-aminoheptanoic acid (to pimelate semialdehyde) [4]: demonstrated analogous activity accepting 7-aminoheptanoic acid as amino donor
- acceptance of 7-aminoheptanol as substrate (conversion of pyruvate to L-alanine) against the empty vector control ([5]; cell free extract, 10 mM 7-aminoheptanol, 10 mM pyruvate, pH 7.5, 25° C., 4 h, FIG. 17): accepted 7-aminoheptanol as substrate
- acceptance of 7-oxoheptanol as substrate forming 7-aminoheptanol, concluded from reversibility ([5]; inferred from reverse direction assay and Example 1): accept 7-oxoheptanol as substrate and form 7-aminoheptanol
- reversibility of ω-transaminase activity: pimelate semialdehyde accepted, 7-aminoheptanoate synthesized [6]: accepted pimelate semialdehyde as substrate and synthesized 7-aminoheptanoate as a reaction product
